The series deals with the molecule itself. Briefly: PFG-NMR translational diffusion.

B1: Sml1 (suppressor of Mec1 lethality), full length wild type (natural protein, S. cerevisiae, UniProt Q04964 1-104, looked up)
chain: MQNSQDYFYAQNRCQQQQAPSTLRTVTMAEFRRVPLPPMAEVPMLSTQNSMGSSASASASSLEMWEKDLEERLNSIDHDMNNNKFGSGELKSMFNQGKVEEMDF
In general, Kd refers to a measure of binding affinity in units of concentration. Low readings indicate a tighter complex, high ones a looser complex. In turn, B1 came in with a Kd of 93 ± 25 µM.

(Values after paper PMC2747730 (Biochemistry, 2008).)
